B1: HDV Ribozyme (parent)
chain: GGCCGGCAUGGUCCCAGCCUCCUCGCUGGCGCCGGCUGGGCAACAUUCCGAGGGGACCGUCCCCUCGGUAAUGGCGAAUGGGACCCA

Variants of: B1
Experiment: self-cleavage, relative activity (ratio to wild type); higher = more cleavage; co-transcriptional

| Variant | self-cleavage |
| --- | --- |
| G59A G68C | 0.969 |
| G59A G68U | 0.92 |
| U60C G80A | 0.386 |
| C58G C85A | 1.05 |
| C58G C86U | 1.25 |
| C58U G73A | 0.7 |
| U60C C64G | 0.776 |
| G59C G81U | 0.415 |
| C58A G76C | 1.1 |
| C58A G76U | 1.05 |
| G59U U72C | 0.599 |
| G59U U72G | 0.776 |
| C58U C61A | 1.21 |
| C58U C61U | 0.954 |
| U60C C62U | 0.997 |
| U60C C62G | 1.07 |
| G59U G67C | 0.963 |
| G59U U79G | 0.692 |
| G59U U79C | 0.563 |
| C58A C84U | 0.919 |
| C58A C84G | 0.764 |
| C58A C84A | 0.644 |
| G59A C85A | 1.1 |
| G59A C85G | 1.13 |

| Variant | self-cleavage |
| --- | --- |
| G59U A83C | 0.34 |
| C58G C63G | 0.91 |
| G59C A70U | 1.03 |
| G59C A70C | 1.07 |
| C58A G81C | 0.128 |
| C58A G81U | 0.397 |
| C58A C64A | 0.962 |
| U60C A83U | 0.653 |
| G59C A87G | 0.99 |
| G59C A87C | 1.08 |
| C58U G82C | 0.386 |
| C58U G82A | 0.906 |
| G59U U65G | 0.914 |
| G59U U65A | 0.912 |
| G59C C66G | 1.14 |
| G59U G76U | 1.08 |
| U60A C61A | 0.742 |
| U60A C61U | 1.15 |
| U60G C62A | 0.886 |
| G59A U60C | 1.12 |
| G59A U60G | 0.956 |
| G59U G68C | 0.973 |
| C58G A83G | 0.633 |
| C58G A83U | 0.776 |

| Variant | self-cleavage |
| --- | --- |
| C58G A83C | 0.386 |
| C58A C75A | 0.201 |
| C58A C75U | 0.158 |
| G59A A83U | 0.59 |
| G59A A83C | 0.554 |
| G59A A83G | 0.748 |
| C58A C61A | 1.23 |
| G59C G74A | 0.635 |
| G59C G74C | 0.0678 |
| G59A G81U | 0.249 |
| G59A G81C | 0.228 |
| C58U A83C | 0.403 |
| C58U A83U | 0.453 |
| C58U A83G | 0.681 |
| C58U U69G | 0.965 |
| U60C C66A | 1.14 |
| U60A U69G | 1.01 |
| U60A U69A | 0.793 |
| G59C G76A | 0.767 |
| G59C G76C | 1.19 |
| G59A C66G | 1.11 |
| G59A C66U | 0.849 |
| G59C U69A | 1.27 |
| G59C U69G | 1.11 |

| Variant | self-cleavage |
| --- | --- |
| G59U C62A | 0.831 |
| G59U C62U | 1.07 |
| G59U C62G | 0.748 |
| C58A G68U | 1.04 |
| C58U U72A | 0.58 |
| C58U U72G | 0.431 |
| C58U U72C | 0.415 |
| G59A C63A | 1.07 |
| C58G U60A | 1.06 |
| U60C C85G | 0.965 |
| C58U C66U | 0.911 |
| C58U C66A | 1.22 |
| U60A C63A | 0.849 |
| U60A C63U | 0.972 |
| U60C C84G | 0.856 |
| U60G A70G | 0.911 |
| U60G A70C | 0.95 |
| C58G C61A | 1.14 |
| C58U G80U | 0.132 |
| U60C A78C | 0.19 |
| U60C A78U | 0.229 |
| U60A C75G | 0.0978 |
| C58A C86A | 1.19 |
| C58A C86G | 0.909 |

| Variant | self-cleavage |
| --- | --- |
| G59C C64A | 0.946 |
| G59C C64G | 0.892 |
| C58U C63A | 0.986 |
| C58U C63G | 0.831 |
| U60A U79A | 0.923 |
| U60A U79C | 0.515 |
| U60C U65C | 1.01 |
| U60C U65G | 0.944 |
| U60C G74U | 0.348 |
| U60C G74A | 0.591 |
| G59A A78G | 0.631 |
| G59A A78U | 0.346 |
| G59C G82C | 0.522 |
| G59U G80A | 0.295 |
| G59U G80U | 0.19 |
| G59A C61G | 1.07 |
| G59A C61U | 1.11 |
| G59C A83G | 0.917 |
| C58A G73C | 0.68 |
| C58A G73U | 0.383 |
| U60A A71C | 0.73 |
| U60A G73A | 0.751 |
| U60A G73C | 0.532 |
| G59U C86G | 0.975 |

| Variant | self-cleavage |
| --- | --- |
| G59U C86A | 0.855 |
| G59A A71C | 0.743 |
| U60A A70U | 1.06 |
| G59A C86U | 0.793 |
| G59A C86G | 1.01 |
| C58U C62A | 0.969 |
| C58U C62U | 0.867 |
| U60C G82C | 0.269 |
| U60C G82A | 0.427 |
| G59U A77U | 0.47 |
| G59U A77C | 0.453 |
| C58A G59A | 1.1 |
| C58A G59C | 0.904 |
| G59C C84U | 0.774 |
| G59C C84A | 0.912 |
| C58U C84U | 0.731 |
| C58U C84A | 1.02 |
| G59A G80C | 0.226 |
| C58A U72A | 0.883 |
| C58A U72G | 1.09 |
| C58A U72C | 0.802 |
| G59C U72C | 0.917 |
| G59C U72A | 0.773 |
| G59C U72G | 0.675 |

| Variant | self-cleavage |
| --- | --- |
| U60A U65G | 1.09 |
| U60A U65C | 1.08 |
| U60A A77C | 0.305 |
| G59A U65G | 0.801 |
| G59A U65C | 1.14 |
| C58G C64G | 0.853 |
| U60A G82C | 0.148 |
| U60A G82U | 0.35 |
| G59U U60A | 1.21 |
| G59U C84U | 0.865 |
| G59U C84G | 0.731 |
| G59A C62A | 0.678 |
| G59A C62G | 0.502 |
| G59A C75A | 0.163 |
| G59A C75U | 0.159 |
| G59A C75G | 0.177 |
| G59A G76C | 0.854 |
| G59A G76U | 1.21 |
| U60C U72G | 0.767 |
| U60C U72A | 0.755 |
| U60A G68U | 1.11 |
| U60A G68A | 0.917 |
| G59A U69C | 0.846 |

From the RNAGym collection of RNA variant scans (doi:10.7554/elife.80360)
